Data from patent US20190077860A1 (EISAI R AND D MANAGEMENT, published 2019).

How the values were obtained:
[1] = target: T1, human EphA4 extracellular region-SEAP-His protein (human, UniProt P54764 20-547); experiment: competition ELISA, competitor human Ephrin B3-Fc
T1 construct: also called hEphA4-SEAP-His
Method: (§1) Antibody A obtained in Example 1 was evaluated for its inhibitory activity against the binding between human EphA4 and its human ligand according to the following steps. Each well of a 96-well plate (Nunc) was coated with an anti-alkaline phosphatase antibody (Thermo Fisher Scientific). After incubation overnight at 4° C., each well was blocked with 1% BlockAce (DS Pharma Biomedical) at room temperature for 1 hour. After washing with 0.05% Tween 20/PBS (Thermo Fisher Scientific) three times, the human EphA4 extracellular region-SEAP-His protein obtained by the method of Example 1 was added (final concentration: 10 nM) to each well and incubated at room temperature for 1 hour. After washing three times, ligands and serially diluted antibody A (0, 0.003, 0.01, 0.03, 0.1, 0.3, 1, 3, 10, 30, 100, 300, 1000, and 3000 nM) or an EphA4 inhibitor KYL peptide ([…], 0, 0.003, 0.01, 0.03, 0.1, 0.3, 1, 3, 10, 30, 100, 300, 1000, and 3000 μM, its synthesis was outsourced to Toray Research Center) were added to each well. The ligands used were biotinylated human Ephrin A5-Fc chimera (R&D Systems, final concentration: 0.7 nM) and biotinylated human Ephrin B3-Fc chimera (R&D Systems, final concentration: 2.3 nM). […] The absorbance at 450 nm was read using a microplate reader (Molecular Devices or PerkinElmer). […]

[2] = target: T2, mouse EphA4 extracellular region-SEAP-His protein (mouse); experiment: SPR (Biacore T200), mouse EphA4 extracellular region-SEAP-His captured on an anti-His antibody CM5 chip, antibody as analyte at 0.6-50 nM, 1:1 fit (run alongside F(ab')2)
T2 sequence (chain, as listed by the source limits assumed): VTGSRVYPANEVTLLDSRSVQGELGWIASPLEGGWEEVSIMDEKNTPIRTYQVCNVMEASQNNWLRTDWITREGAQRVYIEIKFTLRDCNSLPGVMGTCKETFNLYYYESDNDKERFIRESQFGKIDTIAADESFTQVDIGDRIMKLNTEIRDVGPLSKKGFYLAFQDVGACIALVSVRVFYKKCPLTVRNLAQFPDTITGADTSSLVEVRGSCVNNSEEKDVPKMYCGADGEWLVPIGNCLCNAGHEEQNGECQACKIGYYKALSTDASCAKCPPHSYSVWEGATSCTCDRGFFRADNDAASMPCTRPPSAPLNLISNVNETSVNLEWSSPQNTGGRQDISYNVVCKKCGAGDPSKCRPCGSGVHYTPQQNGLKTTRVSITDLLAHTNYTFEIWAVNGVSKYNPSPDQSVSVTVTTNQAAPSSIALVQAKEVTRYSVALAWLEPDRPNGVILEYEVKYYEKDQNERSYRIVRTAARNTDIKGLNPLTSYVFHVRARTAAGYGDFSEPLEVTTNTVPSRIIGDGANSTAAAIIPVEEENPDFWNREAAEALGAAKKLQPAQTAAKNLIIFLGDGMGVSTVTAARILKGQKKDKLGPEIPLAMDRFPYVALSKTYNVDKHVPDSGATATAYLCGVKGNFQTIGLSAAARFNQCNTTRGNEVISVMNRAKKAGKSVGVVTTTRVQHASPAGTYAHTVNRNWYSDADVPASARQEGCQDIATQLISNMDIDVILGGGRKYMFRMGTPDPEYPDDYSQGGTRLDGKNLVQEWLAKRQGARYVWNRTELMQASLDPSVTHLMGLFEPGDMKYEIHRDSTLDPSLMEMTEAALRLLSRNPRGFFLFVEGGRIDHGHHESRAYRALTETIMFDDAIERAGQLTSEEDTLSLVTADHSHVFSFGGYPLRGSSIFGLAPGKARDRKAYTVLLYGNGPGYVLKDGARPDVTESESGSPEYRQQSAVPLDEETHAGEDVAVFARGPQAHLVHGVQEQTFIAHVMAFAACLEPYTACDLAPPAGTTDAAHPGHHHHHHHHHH
Method: (§2) Next, the binding affinity of antibody A-Fab and antibody A-F(ab′)₂ for mouse and human EphA4 was determined by surface plasmon resonance (SPR) using Biacore T200 (GE Healthcare). Antibody A obtained in Example 1 was used as a control for the comparison of each fragment. First, an anti-His tag antibody was immobilized on sensor chip CM5. The immobilization of the anti-His tag antibody on sensor chip CM5 was performed by the amine coupling method using N-hydroxysuccinimide (NHS) and N-ethyl-N′-(3-dimethylaminopropyl)carbodiimide hydrochloride (EDC). Ethanolamine was used in blocking (the sensor chip and the reagents for immobilization were all manufactured by GE Healthcare). The antibody was diluted with a buffer solution for immobilization (10 mM sodium acetate, pH 4.5) into 3 μg/mL and immobilized on the sensor chip according to the protocol attached to Biacore T200.
(§3) Mouse or human EphA4 extracellular region-SEAP-His protein was diluted with a running buffer solution HBS-EP (GE Healthcare, BR-1001-88), injected onto a flow cell for 120 seconds, and captured (amount of the protein captured: approximately 10 to 20 RU). Subsequently, antibody A (50, 16.7, 5.6, 1.9, 0.6, and 0 nM), antibody A-Fab (500, 166.7, 55.6, 18.5, 6.2, and 0 nM), or antibody A-F(ab′)₂ (50, 16.7, 5.6, 1.9, 0.6, and 0 nM) serially diluted using HBS-EP was added to the sensor chip for 120 seconds. Binding reaction curves were sequentially observed at the time of the addition (association phase, for 120 sec) and after the completion of the addition (dissociation phase, for 900 sec). After the completion of each observation, the sensor chip was regenerated by the addition of 3 M MgCl₂ (Wako Pure Chemical Industries) (for 30 sec). The obtained binding reaction curves were subjected to fitting analysis with 1:1 binding models using software BIA evaluation attached to the system to calculate the binding affinity (KD=kd/ka) for mouse and human EphA4.

[3] = target: T2, mouse EphA4 extracellular …; experiment: SPR (Biacore T200), mouse EphA4 extracellular region-SEAP-His captured on an anti-His antibody CM5 chip, antibody as analyte at 0.6-50 nM, 1:1 fit
Method: as §2, §3

[4] = target: rat EphA4 in rat hippocampal neurons (rat, UniProt D3ZZK3 20-986); experiment: cell-based or functional assay
[5] = target: T1, human EphA4 extracellular …; experiment: competition ELISA, competitor human Ephrin A5-Fc
Method: as §1

T1 sequence (P54764 20-547): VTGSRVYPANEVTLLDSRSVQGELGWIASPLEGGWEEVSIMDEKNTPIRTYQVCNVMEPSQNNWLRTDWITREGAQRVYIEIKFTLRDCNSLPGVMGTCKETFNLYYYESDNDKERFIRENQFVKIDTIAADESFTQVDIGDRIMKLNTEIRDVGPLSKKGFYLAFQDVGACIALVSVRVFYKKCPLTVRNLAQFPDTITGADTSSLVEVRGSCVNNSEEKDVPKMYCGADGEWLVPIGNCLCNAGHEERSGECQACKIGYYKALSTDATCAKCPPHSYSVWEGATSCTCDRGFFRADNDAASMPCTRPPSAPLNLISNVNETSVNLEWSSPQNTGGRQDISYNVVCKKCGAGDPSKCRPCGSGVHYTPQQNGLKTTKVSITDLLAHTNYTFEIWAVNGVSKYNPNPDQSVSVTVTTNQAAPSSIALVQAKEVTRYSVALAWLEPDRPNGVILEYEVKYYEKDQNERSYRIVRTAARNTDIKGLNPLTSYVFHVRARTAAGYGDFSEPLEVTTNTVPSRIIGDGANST

B1: antibody A (antibody, mouse IgG1, kappa, V domains shown)
VH: QIQLVQSGPELKKPGETVKISCKASGYTFTDYSMHWVKQAPGKGLKWMGWINTETGEPTYADDFKGRFAFSLETSASTAYLQINNLKNEDTATYFCARIPLYYYGSRYWYFDVWGAGTTVTVSS
VL: DIQMTQSPASLSVSVGETVTITCRASENIYRNLAWYQQKQGKSPQLLVYAATNLADGVPSRFSGSGSGTQYSLKINSLQSEDFGSYYCQHFWGTPWTFGGGTKLEIKR
notes: mouse IgG1 heavy chain, kappa light chain; purified from hybridoma supernatant; also called anti-EphA4 monoclonal antibody; antibody A-IgG
Question: How did the IC50 [1] turn out when B1 was run?
Answer: ~1.9 nM

Question: What about the Kd [2] of the same binder?
Answer: 0.0423 nM

Question: And the koff [2]?
Answer: 0.000288 s⁻¹

Question: And the kon [2]?
Answer: 6.81e+06 M⁻¹ s⁻¹

Question: And the Kd [3]?
Answer: 0.147 nM

Question: What about the koff [3] of the same binder?
Answer: 0.000423 s⁻¹

Question: And the kon [3]?
Answer: 2.88e+06 M⁻¹ s⁻¹

Question: What about the “IC50 of suppression of EphA4 autophosphorylation induced by mouse EphrinA1 in the hippocampal neurons” value [4] of the same binder?
Answer: 24.2 nM

Question: And the IC50 [5]?
Answer: ~2.7 nM
